# Measurements: the Immune Epitope Database (IEDB)
# Experiments:
# Assay in all cases: IEDB peptide-MHC binding, purified MHC/competitive/radioactivity; ≥ and ≤ were set here for values at or beyond the usual limits of such assays
# Conditions in all cases: source organism: Bordetella pertussis
# HLA-A*02:01 = target: HLA-A*02:01
# HLA-B*35:01 = target: HLA-B*35:01
# HLA-B*53:01 = target: HLA-B*53:01
# HLA-B*57:01 = target: HLA-B*57:01
# HLA-B*44:03 = target: HLA-B*44:03
# HLA-B*07:02 = target: HLA-B*07:02
sequence,measurement,setting,value
ALANDGTIV,IC50,HLA-A*02:01,≥ 78.1 µM
DATFQTYAL,IC50,HLA-B*35:01,17 µM
same,IC50,HLA-B*53:01,65.4 µM
DHLTGRSCQ,IC50,HLA-B*57:01,≥ 70.4 µM
EVAGALELS,IC50,HLA-B*35:01,69.9 µM
FEGKPALEL,IC50,HLA-B*44:03,≥ 70.1 µM
GAFDLKTTF,IC50,HLA-B*57:01,50.9 µM
GKSLKKKNQ,IC50,HLA-B*35:01,69.9 µM
KPLADIAVV,IC50,HLA-B*07:02,5.56 µM
LALQAGDAL,IC50,HLA-B*35:01,31.5 µM
MAAGHDATL,IC50,HLA-B*53:01,6.13 µM
NITNKRAAL,IC50,HLA-B*07:02,22.9 µM
PKPKPKPKA,IC50,HLA-B*35:01,69.9 µM
RSRVRALSW,IC50,HLA-B*57:01,0.0584 µM
VSSATKAKG,IC50,HLA-B*57:01,≥ 70.4 µM
